Assay [1] concerns the target T1, L^d MHC class I molecule (;mouse, UniProt P01887 21-119; P01897 25-362, limits assumed).
T1 construct: Empty class I molecule on the surface of RMAS-L^d cells; also called L^d class I molecules
T1 sequence (MHC heavy, looked up): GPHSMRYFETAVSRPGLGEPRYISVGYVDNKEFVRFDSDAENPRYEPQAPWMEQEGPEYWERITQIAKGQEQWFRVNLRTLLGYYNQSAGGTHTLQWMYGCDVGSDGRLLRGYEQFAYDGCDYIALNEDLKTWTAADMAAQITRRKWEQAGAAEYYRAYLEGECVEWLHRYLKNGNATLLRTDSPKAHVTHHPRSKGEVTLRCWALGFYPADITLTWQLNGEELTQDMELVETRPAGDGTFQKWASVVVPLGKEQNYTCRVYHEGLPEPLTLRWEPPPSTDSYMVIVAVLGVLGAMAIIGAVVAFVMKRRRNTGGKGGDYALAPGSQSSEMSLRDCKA
T1 sequence (b2m, looked up): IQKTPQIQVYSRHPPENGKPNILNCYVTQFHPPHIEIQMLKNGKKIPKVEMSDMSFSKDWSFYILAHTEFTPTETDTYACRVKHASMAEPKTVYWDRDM
Nature of the assay: MHC class I stabilization assay, flow cytometry of surface L^d on RMAS-L^d cells with titrated peptide. The procedure: (§1) The binding capacity of these synthetic peptides to L^d and D^b class I molecules were tested in an MHC class I stabilization assay (Cai et al. (1996) supra). Antigen-transporting deficient (TAP) RMAS cells (H-2^b) or L^d transfected RMAS (RMAS-L^d) cells were cultured in the presence of a titrated concentration of peptides at 27° C. After overnight culturing at 27° C., these cells were further cultured for two hours at 37° C. and the surface expression of L^d or D^b on the cells were analyzed by flow cytometry. […] Of the five peptides predicted bind to D^b, only IgE44 binds Db strongly and two peptides, IgE16 and IgE125, bind D^b weakly. […] Thus, a total of six peptides were identified that bind to either L^d or D^b MHC class I molecules.
On the technique in general: A flow cytometer gives signals particle by particle.

In assay [2] the target is T2, D^b MHC class I molecule (;mouse, UniProt P01887 21-119; P01899 25-309, limits assumed).
T2 construct: Empty class I molecule on the surface of RMAS cells; also called D^b class I molecules
T2 sequence (MHC heavy, looked up): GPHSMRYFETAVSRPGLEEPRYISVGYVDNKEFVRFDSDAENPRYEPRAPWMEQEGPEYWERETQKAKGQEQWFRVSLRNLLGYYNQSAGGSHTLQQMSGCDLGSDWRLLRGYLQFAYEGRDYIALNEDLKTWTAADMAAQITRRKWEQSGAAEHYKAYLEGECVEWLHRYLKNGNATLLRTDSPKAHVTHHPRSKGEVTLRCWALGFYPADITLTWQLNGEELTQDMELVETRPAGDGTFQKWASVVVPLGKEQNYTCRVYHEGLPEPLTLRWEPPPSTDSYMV
T2 sequence (b2m, looked up): T1 sequence (b2m, looked up)
Briefly: MHC class I stabilization assay, flow cytometry on RMAS cells. The procedure:
as §1

The target of assay [3] is T1, L^d MHC class I molecule. Briefly: MHC class I stabilization assay, flow cytometry on RMAS-L^d cells. The procedure:
as §1

Assay [4] addresses T2, D^b MHC class I molecule. Briefly: MHC class I stabilization assay, flow cytometry of surface D^b on RMAS cells with titrated peptide. On the procedure:
as §1

Bounds are passed on as bounds.

Regarding RSAPEVYVF [IgE 307], in the assay with L^d MHC class I molecule [1], the binding result is listed as “no binding”. For MSTVNFPAL (also called MSTVNFPAL) [IgE 44], the “ratio of fluorescence intensity (with peptide - without peptide)/without peptide” value with D^b MHC class I molecule [2] was over 2 fold. For GHILNDVSV [IgE 125], the binding result with D^b MHC class I molecule [2] is on record as “binds”. With FPNPVTVTW [IgE 29], the binding result in the assay with L^d MHC class I molecule [1] is on record as “no binding”. In the case of KPCKGTASM [IgE 11], the “ratio of fluorescence intensity (with peptide - without peptide)/without peptide” value with L^d MHC class I molecule [3] was over 2 fold. Consider KSNGSNQGF [IgE 363], for which, in the assay with L^d MHC class I molecule [1], the binding result is “no binding”. As to GSNQGFFIF [IgE 366], the binding result with D^b MHC class I molecule [2] and with L^d MHC class I molecule [3] was “binds” throughout. IPPSPLDLY [IgE 209]: in the assay with L^d MHC class I molecule [1], the binding result is reported as “no binding”. As to TASMTLGCL [IgE 16], in the assay with D^b MHC class I molecule [2], the binding result is “binds”. In the case of ASTCSKLNI [IgE 159], the binding result in the assay with D^b MHC class I molecule [4] is “no binding”. Turning to HSSCDPNAF [IgE 105], the binding result with L^d MHC class I molecule [1] is “no binding”. In the case of HSTIQLYCF [IgE 114], the binding result in the assay with L^d MHC class I molecule [3] was “binds”. With TSLGNTSLR [IgE 411], in the assay with D^b MHC class I molecule [4], the binding result is listed as “no binding”.

(Values after patent publication US20090202506A1 (ORTHO MCNEIL PHARMACEUTICAL, published 2009).)
